Assay results reported in PMC10952227.

Tests used:
[1] = target: Guanylyl cyclase-A (GC-A), human (human) (UniProt P16066)
[2] = target: Guanylyl cyclase-A (GC-A), human (human) (UniProt P16066); experiment: radioligand binding; whole GC-A-expressing QBIHEK293A cells; 50 pmol/L 125I-ANP with increasing concentrations of compound #20; DMEM with 1% BSA; 4°C, 1 h

Chain of UniProt P16066 (P16066 33-473): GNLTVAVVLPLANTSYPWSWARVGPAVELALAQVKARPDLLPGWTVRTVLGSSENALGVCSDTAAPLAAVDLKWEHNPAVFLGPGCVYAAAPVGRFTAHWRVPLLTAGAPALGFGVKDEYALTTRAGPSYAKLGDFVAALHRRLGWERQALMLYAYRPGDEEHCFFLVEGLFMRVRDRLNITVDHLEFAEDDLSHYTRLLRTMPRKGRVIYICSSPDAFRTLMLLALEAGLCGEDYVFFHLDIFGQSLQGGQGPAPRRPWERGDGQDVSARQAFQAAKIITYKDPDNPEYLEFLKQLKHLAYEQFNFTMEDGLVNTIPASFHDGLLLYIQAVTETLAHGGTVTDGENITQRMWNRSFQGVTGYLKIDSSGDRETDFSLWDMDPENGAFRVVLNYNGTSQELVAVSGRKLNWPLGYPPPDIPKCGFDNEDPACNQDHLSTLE

Substance	cGMP production (AlphaScreen) in GC-A-expressing QBIHEK293A cells, concentration-response of human BNP without compound: EC50 [1] [nM]	increase of binding by increasing concentrations of compound #20 [2] [%]
Brain natriuretic peptide (BNP)	1	–
^125I-ANP (peptide)	–	71
